{
  "source": "patent US5444041A",
  "about": "“Convertible microemulsion formulations” (Ibah, Inc., priority 1992, dated 1995)",
  "key": {"[1]": {"test_system": "Spraque-Dawley rats", "assay": "Rectal instillation of calcitonin microemulsions, serum Ca+2 in rats", "type": "in vivo, rat", "protocol": "A series of experiments was carried out in rats using the w/o microemulsions of this invention to evaluate them as a vehicle for the rectal delivery of the peptide calcitonin, (used in the treatment of hypercalcemia by lowering Ca++ serum levels), whereby the body fluids of the rat would serve to convert the microemulsion to an o/w emulsion and thus release the calcitonin.\nFormulations were produced which ranged from 3% to 15% (v/v) aqueous phase and which ranged from liquids to gels at room temperature. The formulations contained, in addition to the aqueous phase, one to three oils and a blend of two emulsifiers. […] Three formulations with different oil blends were chosen for biological evaluation in juvenile, male rat model (Spraque-Dawley rats; 140-170 gm).\nThree w/o microemulsion formulations were tested which contained 3% v/v aqueous phase volume, and varying amounts of calcitonin/ml of emulsion. Two, Formulations A and B below, were formulated as liquids; the third microemulsion (Formulation C) was formulated in semi-solid (suppository) form by addition of a high-melting coconut oil to the microemulsion. […]\nSerum was prepared from each blood sample and serum Ca^+2 (free ionized calcium) levels were determined using a Beckman calcium clinical assay kit."}, "[2]": {"assay": "Percent activity of horseradish peroxidase (OPD assay, 492 nm) after storage at 50° C.", "type": "physicochemical", "protocol": "In Example 10, the protein horseradish peroxidase (HRP), was stored for given times and temperatures, then assayed in vitro, as shown in this example.\nAfter storage for the specified time at 50° C., the microemulsion was then converted to an o/w emulsion by the addition of water. This was achieved by pipetting 30 μL of the microemulsion containing the horseradish peroxidase enzyme into 970 μL of 0.9 wt. % saline (NaCl) solution.\nAfter conversion, the emulsion was then assayed for activity. This activity was compared with the activity of stock solutions of HRP which had been maintained at 50° C. for the same time and then pipetted into saline (30 μL into 970 μL of saline) in the same manner as the microemulsion above. The stock HRP was first diluted to the same HRP concentration as in the aqueous phase of the converted microemulsion.\nThe assay was carried out as follows:\n1. Set spectrophotometer at 492 nm and 25° C.\n2. Into the cuvette, pipet 2.97 mL OPD (O-phenylene diamine) buffer solution (1 tab.→26 mL)\n3. Establish blank at 492 nm.\n4. Into the cuvette, pipet 25 μL diluted control HRP solution. Mix and record the increase in absorbance at 492 nm for 5 minutes.\n5. Same procedure is followed for microemulsion w/HRP solution. OPD=O-phenylene diamine\nPercent activity was determined by using the following equation: [formula]"}, "[3]": {"settings": "rat, in vivo", "protocol": "A series of experiments was carried out using rats with the w/o microemulsion of this invention to evaluate them as a vehicle for the delivery of the human growth hormone, hGH. The body fluids of the rats served to convert the microemulsion to an o/w emulsion which activated the drug and promoted drug uptake across the mucosal membrane of the rat colon.\nThe rats were approximately 100 grams and were fasted for 24 hours prior to testing.\nThe injected group, Group C, received the extracted hGH in a buffer solution at the human equivalent dose of 0.05 mg/kg body weight. The two rectal administration groups, Groups A and B, received ten times the human equivalent dose.\nThe rats were anaesthetized just prior to dosing. Suppositories (Group A) and the buffer solution (Group B) administered rectally were sealed in the rectum by a plug and liquid cement. Group C animals were injected subcutaneously (SQ). After administering the dosage, serum hGH levels were determined at 30, 60, 120, 180, 240, and 300 minutes. […] The blood was centrifuged and the serum assayed by hGH ELISA (Medix Lab, Foster City, Calif.) for quantitation of the extracted growth hormone.\nThe AUC (area under the curve) for both routes of administration was determined using the trapezoid rule (M. Gibaldi, Biopharmaceutics and Clinical Pharmacokinetics, Lea and Febiger, Philadelphia, Pa., 1984, pp. 315-16). […]"}},
  "data": [
    {"substance": "calcitonin [Saline]", "values": [
      {"measurement": "serum calcium response to rectal administration (in words)", "setting": "[1]", "value": "no significant response"}
    ]},
    {"substance": "horseradish peroxidase [Control HRP]", "values": [
      {"measurement": "% Activity", "setting": "[2]; Time 0 hours, converted with saline before assay", "value": 100, "unit": "%"},
      {"measurement": "% Activity", "setting": "[2]; Time 3 hours", "value": 76, "unit": "%"},
      {"measurement": "% Activity", "setting": "[2]; Time 6 hours", "value": 73, "unit": "%"},
      {"measurement": "% Activity", "setting": "[2]; Time 24 hours", "value": 20, "unit": "%"},
      {"measurement": "% Activity", "setting": "[2]; Time 27 hours", "value": 20, "unit": "%"},
      {"measurement": "% Activity", "setting": "[2]; Time 48 hours", "value": 11, "unit": "%"}
    ]},
    {"substance": "human growth hormone [Group C]", "values": [
      {"measurement": "AUC (area under the curve), trapezoid rule", "setting": "[3]", "value": "approximately 24.5 ng-hr/ml"}
    ]},
    {"substance": "human growth hormone [hGH in buffer]", "values": [
      {"measurement": "uptake of the drug", "setting": "[3]", "value": "no uptake of the drug"}
    ]}
  ]
}
